# Measured values taken from the nanobody polyreactivity screen of Harvey et al. (2022).
# Assay: yeast display, Sf9 membrane polyspecificity reagent, FACS + sequencing; frameworks hold sequencing errors
# Summary of the method: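 Synthetic nanobody libraries on Saccharomyces cerevisiae BJ5465 were galactose-induced for 36–48 hours, stained 1 hour at 4 °C with 10% biotinylated, detergent-solubilized Sf9 membrane reagent and enriched on streptavidin microbeads. FACS then separated cells into low and high (top ~1%) gates by anti-HA (expression) and streptavidin (reagent binding) fluorescence. Genes were colony-PCR amplified, MiSeq 2 × 250 sequenced and CDR-length filtered. A clone's polyreactivity label is that of its gate of origin.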
row,Sequence,polyreactivity (PSR sort gate)
1,QVQLVESGGGLVQAGGSLRLSCAASGSTFYENAKGWYRQAPGKERELVAGISRGGGSTYYADSVKGRFTISRDNAKNTVYLQMNSLKPEDTAVYYCARRPRYGVEYNYWGQGTQVTVSS,low polyreactivity
2,QVQLVESGGGLVQAGGSLRLSCAASGSTFYFYAMGWYRQAPGKERELVAAITGSGGSTYYADSVKGRFTISRDNAKNTVYLQMNSLKPEDTAVYYCAARFSYWKTKRAYDWGQGTQVTVSS,high polyreactivity
3,QVQLVESGGGLVQAGGSLRLSCAASGSTFYFYAMGWYRQAPGKERELVATISYSDGSTYYADSVKGRFTISRDNAKNTVYLQMNSLKPEDSAVYYCAKGSNDWVNFGYDYWGQGTQVTVSS,low polyreactivity
4,QVQLVESGGGLVQAGGSLRLSCAASGSTFYGNAMGWYRQAPGKERELVAAIRWRGGRTYYADSVKGRFTISRDNAKNTVYLQMNSLKPEDTAVYYCNALPGVSHTQYDRVGYWGQGTQVTVSS,high polyreactivity
5,QVQLVESGGGLVQAGGSLRLSCAASGSTFYGYAKGWYRQAPGKERELVAAITRSGGSTYYADSVKGRFTISRDNAKNTVYLQMNSLKPEDTAVYYCAVATGPVSYRRYYWGQGTQVTVSS,high polyreactivity
6,QVQLVESGGGLVQAGGSLRLSCAASGSTFYGYAMGRYRQSPGKERELVAAITRSGGSTYYADSVKGRFTISRDNAKNTVYLQMNSLKPEDTEVYYCNKYGYKGGVGYDYWGQGTQVTVSS,high polyreactivity
7,QVQLVESGGGLVQAGGSLRLSCAASGSTFYGYAMGSYRQAPGKERELVAAISYSGSSTYYADSVKGRFTISRDNAKNTVYLQMNSLKPEDTAVFYCAVDDTHPFGPDGGGDYWGQCTQVTVSS,low polyreactivity
8,QVQLVESGGGLVQAGGSLRLSCAASGSTFYGYAMGWYRQAPGKERELVAAIRRIGGTTYADSVKGRFTISRDNAKNTVYLQMNSLKPVDTAVYYCAAYGFSYRYRYYYWGQGTQVTVSS,high polyreactivity
9,QVQLVESGGGLVQAGGSLRLSCAASGSTFYGYAMGWYRQAPGKERELVAAISSSGTRTYYADSVKGRFTISRDNAKNTVYLQMNSLKPEDTAVYYCNAYYYIPFEGRGYSKMDYWGQGTQVTVSS,high polyreactivity
10,QVQLVESGGGLVQAGGSLRLSCAASGSTFYGYAMGWYRQAPGKERELVAAISWRGGRTNYADSVKGRFTISRDNAKNTVYLQMNSLKPEDTAFYYCAARSYGITDYGMYSWGQGTQVTVSS,high polyreactivity
11,QVQLVESGGGLVQAGGSLRLSCAASGSTFYGYAMGWYRQAPGKERELVAAITRSGGSTYYADSVKGRFTISRDNAKNTVYLQMNSLKPEDTEVYYCNKYGYKGGVGYDYWGQGTQVTVSS,high polyreactivity
12,QVQLVESGGGLVQAGGSLRLSCAASGSTFYGYAMGWYRQAPGKERELVAAITRSGGSTYYADSVKGRFTISRDNAKYTVYLQMNSLKPEDTEVYYCNKYGYKGGVGYDYWGQGTQVTVSS,high polyreactivity
13,QVQLVESGGGLVQAGGSLRLSCAASGSTFYGYAMGWYRQAPGKERELVAAITSTVITDYADSVKGRFTISRDNAKNTVYLQMNSLKPEDTAVYYCNKDRATRVTAEFRGDDDYWGQGTQVTVSS,low polyreactivity
14,QVQLVESGGGLVQAGGSLRLSCAASGSTFYGYAMGWYRQAPGKERELVAAITYSGGSTYYADSVKGRFTISRDNAKNTVYLQMNSLKPEDTAVYYCAATWLWFRRYRYDYWGQGTQVTVSS,high polyreactivity
15,QVQLVESGGGLVQAGGSLRLSCAASGSTFYHNAMGWYRPAPGKERELVAAISRADVSTYYADSVKGRFTISRDNAKNTVYLQMNSLKPEDTAVYFGAAYWYGSQYKWRYDYWGQGTQVTVSS,low polyreactivity
16,QVQLVESGGGLVQAGGSLRLSCAASGSTFYHNVMGWYRQAPGKERELVASIDTGDSTNYADSVKGRFTISRDNAKNTVYLQMNSLITEHTAVYYCNADSYPALNKRGYEYWGQGTQVTVSS,low polyreactivity
17,QVQLVESGGGLVQAGGSLRLSCAASGSTFYHNVRGWYRPAPGKERELVASIDTGDSTNYADSVKGRFTISRDNAKNTVYFQMNSLTPEDTAVYYCNADSYAALNKRGYDYWGQGTQVTVSS,low polyreactivity
18,QVQLVESGGGLVQAGGSLRLSCAASGSTFYINAMGWYRQAPGKERELVADITVRGGNTYYADSVKGRFTISRDNAKNTVYLQMNSLKPEDTAVYYCAADDWGFWYDYWGQGTQVTVSS,high polyreactivity
19,QVQLVESGGGLVQAGGSLRLSCAASGSTFYINVMGWYIQAPGKERELVAAIRRRGGSTYYADSVKGRFTISRDNEKNTVYLQMNSLKPEDTAVYYCNAFSITFYDFNSWGQGTQVTVSS,low polyreactivity
20,QVQLVESGGGLVQAGGSLRLSCAASGSTFYIYAMGWYRQAPGKEREFFAAITWSGGRTFYADSVKGRFTISRDNAKNTVYFQMNSLKPEDTAVYYCAARFWSDKTGSRYYYWGQGTQVTVSS,high polyreactivity
21,QVQLVESGGGLVQAGGSLRLSCAASGSTFYIYAMGWYRQAPGKERELVAAITWRGGGTYYADSVKGRFTISRDNAKNTVYLEMNSLKPEDTAVYYCNADYPRSRGVKYDYWGQGTQVTVSS,high polyreactivity
22,QVQLVESGGGLVQAGGSLRLSCAASGSTFYIYAMGWYRQAPGKERELVARISGSGGSTYYADSVKGRFTISRDNAKNTVELQMNSLKPEDTAVYYCAADDIYKYYQYYAFPYYRYDYWGQGTQVTVSS,low polyreactivity

row,Sequence,polyreactivity (PSR sort gate)
1,QVQLVESGGGLVQAGGSLRLSCAASGSTFYIYAMGWYRQAPGKERELVARISGSGGSTYYADSVKGRFTISRDNAKNTVYLQMNSLKPEDTAVYYCAADYIYKYYQYYAFPYYRYDYWGQGTQVTVSS,low polyreactivity
2,QVQLVESGGGLVQAGGSLRLSCAASGSTFYIYAMGWYRQAPGKERELVARISGSTDYADSVKGRFTISRDNAKNTVYLQMNSLKPEDTAVYYCAARYVYPYWYGDYYWGQGTQVTVSS,low polyreactivity
3,QVQLVESGGGLVQAGGSLRLSCAASGSTFYKYAMGWYRPAPGKESELVAAISRGGSTYYADSVKGRFTISRDNAKNTFYLQMNSLKPEDTAVYYCAAETVSYYSKYDYWGQGTQVTVSS,low polyreactivity
4,QVQLVESGGGLVQAGGSLRLSCAASGSTFYKYAMGWYRQAPGKERELVAAITGSGGGTYYADSVKGRFTISRDNGKNTVYLQMNCLKPEDTAVYYCAARRVRSREAYDYWGQGTQVTVSS,high polyreactivity
5,QVQLVESGGGLVQAGGSLRLSCAASGSTFYKYAMGWYRQAPGKERELVARISRGGGSTYYADSVKGRFTISRDNAKNTVYLQMNSLKPEDTAVYYCAAGVRGQNDGYYWGQGTEVTVSS,high polyreactivity
6,QVQLVESGGGLVQAGGSLRLSCAASGSTFYLNAMGWYRQAPGKERELVAAIDYRGGSTYYADSVKGRFTISRDNAKNTVYLQMNSLKPEDTAVYYCNADYVYVHYQPGYYWGQGTQVTVSS,low polyreactivity
7,QVQLVESGGGLVQAGGSLRLSCAASGSTFYLNAMGWYRQAPGKERELVAAITVSGGSTYYADSVKGRFTISRDNAKNTVYLQMNSLKPEDTAVYYCARELLSPTYQRWYYYWGQGTQVTVSS,low polyreactivity
8,QVQLVESGGGLVQAGGSLRLSCAASGSTFYLYAMGWYRQAPGKEREFVAAISWSGGRTYYAYSVKGRFTISRDNAKNTVYLQMNSLKPEDTAVYYCAARRRYTWQYTRYDMGYWGQGTQVTVSS,low polyreactivity
9,QVQLVESGGGLVQAGGSLRLSCAASGSTFYLYAMGWYRQAPGKEREFVARISASGGNTYYADSVKGRFTISRDNAKNTVYLQMNSLKPEDTAVYSCAARVRGRNASDYDYYYWGQGTQVTVSS,high polyreactivity
10,QVQLVESGGGLVQAGGSLRLSCAASGSTFYLYAMGWYRQAPGKERELVAAISSGGRTYYADSVKGRFTISRDNAKNTVYLQMNRLKPEDTAVYYCAKVYRRRYYWGQGTQVNVSS,high polyreactivity
11,QVQLVESGGGLVQAGGSLRLSCAASGSTFYLYAMGWYRQAPGKERELVAAITFRGSRTYYADSVKGRFTISRDNAKNTVYLQMNRLKPEDTAVYYCAKEKYRTREHDSWGQGTQVTVSS,low polyreactivity
12,QVQLVESGGGLVQAGGSLRLSCAASGSTFYLYAMGWYRQAPGKERELVAAITYGGGSTYYADSVKGRFTISRDNAKNTVYLQMNSLKPEDTAVYYCAARWLYWPRYTSLVYTHRDSWGQGTQVTVSA,low polyreactivity
13,QVQLVESGGGLVQAGGSLRLSCAASGSTFYLYAMGWYRQAPGKERELVASITYSGASTYYADSVKGRFTISRDNAKNTVYLQMNSLKPEDTAVYYCAADQRGWFAVGSQRKYNYWGQGTQVTVSS,low polyreactivity
14,QVQLVESGGGLVQAGGSLRLSCAASGSTFYLYTMGWYRQAPGKERELVAAISRSGGSTRYADSVKGRFTISRDNAKNTVYLQMNSLKPEDTAVYYCAARSTVYPRPHERDYWGQGTQVTVSS,high polyreactivity
15,QVQLVESGGGLVQAGGSLRLSCAASGSTFYNYAMGWYRQAPGKERELVASISSSGGSTYADSVKGRFTISRDNAKNTVYLQMNSLKPEDTAVYYCARVRWIVPWYGPTDDYWGQGTQVTVSS,low polyreactivity
16,QVQLVESGGGLVQAGGSLRLSCAASGSTFYPNAMGGYRQAPGKERELVATITQRGGTTYYADSVKGRFTISRDNAKNTVYLQMNSLKPEDTAVYYCNAGPVRLPYDSWGQGTQVTVSS,low polyreactivity
17,QVQLVESGGGLVQAGGSLRLSCAASGSTFYPNAMGWYRQAPGKERELVAAISRGTRTKYADSVKGRFTISRDNAKNTVYLQMNSLKPEDTAVYYCAADTGTGLDWGQGTQVNVSS,high polyreactivity
18,QVQLVESGGGLVQAGGSLRLSCAASGSTFYPNAMGWYRQAPGKERELVAAISWSGGRTYYADSVKGRFTISRDNAKNTVYLQMNSLKPEDTAVYYCNRYHRTSWRAKYDYWGQGTQVTVSS,high polyreactivity
19,QVQLVESGGGLVQAGGSLRLSCAASGSTFYPNAMGWYRQAPGKERELVAAITSGGSTYYADSVKGRFTSSRDNAKNTVYLQMTSLKPEDTAVYYCAAQRRYHQDTTIGPGNYSYWGQGTQVTVSS,low polyreactivity
20,QVQLVESGGGLVQAGGSLRLSCAASGSTFYPNAMGWYRQAPGKERELVAVITRSGGSTYYADSVKGRFTISRDNAKNTVYLQMNSLKPEDTAVYYCNAAYRTAYYGPRYDYWGQGTQVTVSS,high polyreactivity
21,QVQLVESGGGLVQAGGSLRLSCAASGSTFYPTAMGWYRQAPGKERELVAAIRVRGGSTYYADSVKGRYTISRDNAKNTVYLKRNCLKPEDTAVYYCNADTFSSFGWGQGTQVTVSS,low polyreactivity
